{"source": "patent US20240301070A1", "about": "“IMPROVING ANTIBODY TOLERABILITY ASSOCIATED WITH INTRAVENOUS ADMINISTRATION” (BIOINVENT INTERNATIONAL AB, priority 2020, published 2024)", "key": {"[1]": {"test_system": "human subjects with non-hodgkins B-cell lymphoma", "assay": "IRR grading in clinical studies with BI-1206", "assay_type": "in vivo", "description": "The IRR that may be prevented or mitigated as described herein and/or that may be predicted with the method described herein may be any IRR. The adverse event denoted “Infusion related reaction” in the CTCAE version 5.0 is used for disorders characterized by adverse reaction to the infusion of pharmacological or biological substances; belonging to the group of “Injury, poisoning and procedural complications”."}, "[2]": {"test_system": "human subjects with non-hodgkins B-cell lymphoma", "assay": "Platelet counts in clinical studies with BI-1206", "assay_type": "in vivo", "excerpt": "(§1) Platelet counts, ALT concentrations and IRR grading were obtained from clinical sites where anayzed and reported according local standard procedures."}, "[3]": {"test_system": "human subjects with non-hodgkins B-cell lymphoma", "assay": "Cytokine analysis of plasma/serum of human subjects (MSD)", "assay_type": "in vivo", "method": "For cytokine concentrations, frozen plasma samples were thawed and diluted ×2 and ×8. Two parallel set of cytokines were analyzed, the proinflammatory assay with IL-6, IL-8, TNF-α, IFN-γ, IL-10, IL-2 and IL-4 (MesoScale Discovery (MSD) #K15049), and the chemokine assay with MIP-1β, IL-1β, IL-23, IL-12p 70, TARC and VEGF (MSD #K15067). The assays followed the manufacturer's protocol as outlined briefly: 50 μL of sample and calibration standard were added to the appropriate MSD plates and incubated. Following washing, 25 µL of SULFO-TAG detection antibody mixture were added to each well of the corresponding plate. The plates were analyzed on a QuickPlex SQ120 Reader instrument (MSD) and cytokine concentration was calculated using the MSD software (Discovery Workbench, 2013; version LSR-4-0-12)."}, "FcgRIIb": {"molecular_target": "T1, FcgRIIb (Homo sapiens, UniProt P31994)", "T1 construct": "FcgRIIb receptor occupancy on peripheral B cells (A) and peripheral B cell levels (B) in human subjects; endogenous in cells; host or cells: peripheral CD19+ B cells in whole blood of human subjects (same method also used on hFcgRIIB transgenic mice)", "T1 sequence (P31994 43-310)": "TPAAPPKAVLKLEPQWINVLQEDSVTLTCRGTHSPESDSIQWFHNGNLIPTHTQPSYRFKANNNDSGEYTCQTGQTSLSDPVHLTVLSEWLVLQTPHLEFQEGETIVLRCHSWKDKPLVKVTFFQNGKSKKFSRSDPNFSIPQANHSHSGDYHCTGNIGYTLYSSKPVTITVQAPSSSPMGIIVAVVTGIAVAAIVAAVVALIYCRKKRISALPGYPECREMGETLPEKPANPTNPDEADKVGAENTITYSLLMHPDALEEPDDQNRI", "assay": "FcgRIIb receptor occupancy on peripheral B cells (flow cytometry)", "assay_type": "in vivo", "details": "100 mg BI-1206", "method": "The FcgRIIb receptor occupancy in humans and hFcgRIIb transgenic mice was analyzed using flow cytometry. Whole blood from was incubated with either 005-C05 antibody (targeting hFcgRIIb) or anti-hCD32-AF647 antibody. 005-C05 binds the same epitope as BI-1206 but with much lower affinity. In the analysis, the Geo Mean of respectively mAb (005-C05 and anti-human CD32) was acquired on the CD19+ cell population. Receptor occupancy (RO) was calculated using the following equations: RO (%)=((Total Receptors-Normalized Free Receptors)*100)/Total Receptors. All replicates of 005-C05 geo mean of CD19+ cells were then multiplied by the Normalization factor."}, "peripheral B lymphocytes": {"test_system": "peripheral B lymphocytes", "assay": "Peripheral B lymphocyte depletion in human subjects", "assay_type": "in vivo", "details": "100 mg BI-1206"}, "[4]": {"test_system": "human subjects with non-hodgkins B-cell lymphoma", "assay": "ALT/AST in clinical studies with BI-1206", "excerpt": "as §1"}, "[5]": {"molecular_target": "mouse CD32B (FcγRIIB) (mouse) (UniProt P08101)", "sequence (P08101 30-207 limits assumed)": "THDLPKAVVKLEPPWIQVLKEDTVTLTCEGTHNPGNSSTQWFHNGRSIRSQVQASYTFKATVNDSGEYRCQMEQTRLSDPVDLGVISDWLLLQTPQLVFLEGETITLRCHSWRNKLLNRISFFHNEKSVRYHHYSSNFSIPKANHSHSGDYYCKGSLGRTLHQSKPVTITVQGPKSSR", "assay": "receptor saturation at 10 ug/ml serum concentration of AT-130-2; separate experiments not shown"}, "wildtype C57/BL6 mice [6]": {"test_system": "wildtype C57/BL6 mice", "assay": "Macroscopic IRR scoring (0-2) of mice after antibody injection", "assay_type": "in vivo, mouse", "method": "Six to eight weeks-old (17-20 g) female C57/BL6 and Balb C mice were obtained from Taconic or Janvier. Mice were injected i.v with mouse anti-CD32B AT-130-2 IgG2a either as a bulk dose of 200 ug/mouse or as a split-dose with 8 ug/mouse followed by 200 ug/mouse. […]\nMice were monitored post injection with regards to changes in behavior and macroscopic symptoms such as isolation, mobility, and fur condition. Macroscopic IRRs scoring system of 0-2 was set up based on the observations.\nThese premedications were given i.p 1h prior to injection i.v of mouse anti-CD32B AT-130-2 IgG2a as a bulk dose of 200 ug/mouse. […]\nMice were monitored post injection with regard to changes in behavior and macroscopic symptoms such as isolation, mobility, and fur condition. Macroscopic IRRs scoring system of 0-2 was set up based on the observations: […]"}, "wildtype C57/BL6 mice [7]": {"test_system": "wildtype C57/BL6 mice", "assay": "Platelet count in fresh mouse blood (Vetscan)", "assay_type": "in vivo", "details": "40 mg/kg, 1 hour only, 10 mg/kg AT-130-2 IgG2a i.v.", "method": "Blood samples were collected from vena saphena 20 min post injection of bulk dose of anti-CD32B for instant blood count analysis. For liver enzyme and cytokine analysis, the mice were bled from the aorta under isoflurane anesthesia just prior to sacrifice. Samples for liver enzymes and cytokines were collected 1h and respectively 3h after bulk dose.\nPlatelet counts were analyzed in fresh blood using a Vetscan (Vetscan HM5 Abaxis, Triolab).\nBlood samples were collected from vena saphena for instant blood count analysis. For serum concentrations of AT130-2, liver enzyme and cytokine analysis, the mice were bled from the aorta under isoflurane anesthesia just prior to sacrifice.\nBlood samples were collected from vena saphena for instant blood count analysis."}, "[8]": {"details": "70 mg BI-1206, subjects 501-001 and 503-002"}, "[9]": {"details": "≥50 mg BI-1206 (FIG. 6: 70-100 mg)"}}, "note": "Entries after “also recorded” stand apart in the source; their conditions may differ.", "data": [{"compound": "BI-1206: anti-FcγRIIB antibody with light chain SEQ ID No: 1 and heavy chain SEQ ID No: 2", "values": [{"measurement": "IRR's without two-dose premedication", "setting": "[1]; 30 mg BI-1206, subject 201-003, 9 administrations", "value": "repeatedly experienced IRR's"}, {"measurement": "grade of IRR's with two doses of dexamethasone", "setting": "[1]; 30 mg BI-1206, subject 201-003, 10th administration", "value": 1}, {"measurement": "IRRs after premedication with two doses of dexamethasone", "setting": "[1]; 70 mg BI-1206, subjects 501-001 and 503-002, 12 mg / 4 mg evening before and 20 mg 30 minutes prior", "value": "None of the subjects suffered any IRRs; also recorded: did not suffer IRRs"}, {"measurement": "grade of IRRs", "setting": "[1]; 70 mg BI-1206 with rituximab, subjects 501-001 and 503-002, dexamethasone (20 mg) only 30 minutes prior to infusion", "value": "2-3"}, {"measurement": "severity and frequency of IRRs after implementation of two-dose corticosteroid premedication", "setting": "[1]; 70-100 mg BI-1206, study 17-BI-1206-02", "value": "Significantly lower frequency and severity of IRRs; also recorded: statistically significant reduced severity and frequency of IRRs"}, {"measurement": "infusion related reactions (IRRs) during BI-1206 infusions", "setting": "[1]; i.v., human subjects", "value": "frequently associated with IRRs; also recorded: Frequent"}, {"measurement": "platelet decrease", "setting": "[2]; 30 mg BI-1206, subject 201-003", "value": "never been seen"}, {"measurement": "platelet decrease after premedication with two doses of dexamethasone", "setting": "[2]; [8]", "value": "no/low platelet decrease"}, {"measurement": "platelets", "setting": "[2]; [9]", "value": "The decrease is transient"}, {"measurement": "seriousness of thrombocytopenia", "setting": "[2]; [9]", "value": "never serious or associated with bleeding; also recorded: not been serious nor associated with bleeding"}, {"measurement": "time to resolution of most thrombocytopenia episodes", "setting": "[2]; [9]", "value": "within a week"}, {"measurement": "subjects with transient cytokine release", "setting": "[3]; 70-100 mg BI-1206 (FIG. 6), serum/plasma available", "value": "7 of 8"}, {"measurement": "association of cytokine release with clinical symptoms", "setting": "[3]; ≥70 mg BI-1206", "value": "not been associated with clinical symptoms"}, {"measurement": "cytokines included in the release", "setting": "[3]; ≥70 mg BI-1206", "value": "macrophage inflammatory protein (MIP)-1β, tumor necrosis factor (TNF)-α, interleukin (IL)-10, IL-8, IL-6, and IL-4"}, {"measurement": "time of peak cytokine release", "setting": "[3]; ≥70 mg BI-1206", "value": "immediately after infusion"}, {"measurement": "time to normalization of cytokines", "setting": "[3]; ≥70 mg BI-1206", "value": "≤ 24", "unit": "h"}, {"measurement": "FcγRIIB receptor occupancy on peripheral B cells", "setting": "FcgRIIb", "value": "~100", "unit": "%"}, {"measurement": "duration of receptor saturation", "setting": "FcgRIIb", "value": "up to 48 hours"}, {"measurement": "peripheral B lymphocytes", "setting": "peripheral B lymphocytes", "value": "transient depletion"}, {"measurement": "time to recovery of peripheral B lymphocytes", "setting": "peripheral B lymphocytes", "value": "approximately 7 days"}, {"measurement": "ALT/AST increase after premedication with two doses of dexamethasone", "setting": "[4]; [8]", "value": "no ALT/AST increase"}, {"measurement": "subjects with significant ALT and AST increase", "setting": "[4]; ≥70 mg BI-1206", "value": "3 out of 16"}]}, {"compound": "AT-130-2 IgG2a (anti-mouse CD32B IgG2a clone AT130-2) (antibody)", "values": [{"measurement": "receptor saturation", "setting": "[5]", "value": 100, "unit": "%"}]}, {"compound": "C[C@H]1C[C@H]2[C@@H]3CCC4=CC(=O)C=C[C@]4(C)[C@@]3(F)[C@@H](O)C[C@]2(C)[C@@]1(O)C(=O)CO", "note": "[betamethasone]", "values": [{"measurement": "effect of single premedication on macroscopic symptoms (IRRs)", "setting": "wildtype C57/BL6 mice [6]; 40 mg/kg, 1 hour only, 10 mg/kg AT-130-2 IgG2a i.v.", "value": "did not inhibited"}, {"measurement": "grade of macroscopic symptoms after single premedication", "setting": "wildtype C57/BL6 mice [6]; 40 mg/kg, 24 hours only, 10 mg/kg AT-130-2 IgG2a i.v.", "value": 1}, {"measurement": "effect of single premedication on platelet decrease", "setting": "wildtype C57/BL6 mice [7]", "value": "did not inhibited"}]}, {"compound": "CCCCCCCCCCCCCCCCCCNC(=O)OCC(COP(=O)([O-])OCC[n+]1ccsc1)OC", "note": "(stereo not drawn) [anti-PAF]", "values": [{"measurement": "inhibition of IRRs by other pre-medications", "setting": "wildtype C57/BL6 mice [6]; i.p. 1h prior to i.v. AT-130-2 IgG2a bulk dose 200 ug/mouse", "value": "None of these pre-medications could inhibit IRRs; also recorded: none of the tested substances (anti-PAF, anti-IL-6, anti-histamine and a leukotrien-antagonist) could prevent the IRRs"}]}]}
